Measured values as given in patent US20200277366A1 (UCB, published 2020).
Values joined by “and” are separate entries in the source; they are usually repeats but may differ in a detail not shown here. Equal values may be shown once.

B1: CA2109 IgG (recombinant rat/mouse chimeric IgG, rat variable regions on mouse gamma-1 / mouse kappa) (antibody, V domains shown)
VH: EVQLHQSGAALVKPGASVKLSCKTSGYTFTDNYIHWVKQSPGKSLEWIGYINPSSAYAHYNEKFKTKATLTVDKSTNTAYMELSRLTSEDSATYFCTRRYYSAMPFAYWGQGTLVTVSS
VL: DIVMTQSPASLSASLGETVTIECRASEDIYNGLAWYQQKPGKSPHLLIYNSNTLHTGVPSRFSGTGSGTQYSLKINSLQSEDVATYFCQQNYDFPLTFGSGTKLELK
notes: Rat variable regions cloned into mouse gamma-1 IgG and mouse kappa expression vectors, expressed in HEK-293; also called fwk18 IgG
B2: 02109 rat/human chimeric Fab (Fab, V domains shown)
VH: B1 VH
VL: B1 VL
notes: Rat variable regions with human Fab constant regions; not the humanised graft; also called CA2109

Experiments:
human TNF-alpha [1] = target: T1, human TNF-alpha (human, UniProt P01375 77-233); experiment: cell-based or functional assay
human TNF-alpha [2] = target: T1, human TNF-alpha; experiment: SPR (Biacore T200), mouse IgG captured by anti-mouse IgG Fc, human TNF injected at 20 nM
Method: Recombinant rat/mouse chimeric IgG and Fab molecules were screened in the HEK-293-CD40-BLUE reporter assay at a number of concentrations to enable the calculation of EC50 values and determine the maximum percentage inhibition. […] IgG were also analysed in a Biacore experiment to determine binding affinities for human TNF. The assay format of the Biacore experiment was capture of the mouse IgG by immobilised anti-mouse IgG-Fc then titration of human TNF over the captured surface. BIA (Biamolecular Interaction Analysis) was performed using a Biacore T200 (GE Healthcare). Affinipure F(ab′)2 Fragment goat anti-mouse IgG, Fc fragment specific (Jackson ImmunoResearch) was immobilised on a CM5 Sensor Chip via amine coupling chemistry to a level of ˜5000 response units (RUs). HBS-EP buffer (10 mM HEPES pH 7.4, 0.15 M NaCl, 3 mM EDTA, 0.05% Surfactant P20, GE Healthcare) was used as the running buffer with a flow rate of 10 μL/min. A 10 μL injection of mouse IgG at 0.5 μg/mL was used for capture by the immobilised anti-mouse IgG-Fc. Human TNF, was injected over the captured mouse IgG twice at 20 nM at a flow rate of 30 μL/min. The surface was regenerated by 2×10 μL injection of 40 mM HCl, interspersed by a 5 μL injection of 5 mM NaOH at a flowrate of 10 μL/min. Background subtraction binding curves were analysed using the T200evaluation software (version 1.0) following standard procedures.
Neutralisation was determined using the HEK-293-CD40-BLUE reporter assay (Invivogen). […] Biacore analysis was performed to determine binding kinetics.

human TNF-alpha [3] = target: T1, human TNF-alpha; experiment: SPR (Biacore T200), Fab captured by anti-human F(ab')2, human TNF at 5 nM
Method: (§1) The assay format of the Biacore experiment was capture of the rat/human chimeric Fabs by immobilised anti-human F(ab′) then titration of human or cynomolgus TNF over the captured surface. BIA (Biamolecular Interaction Analysis) was performed using a Biacore T200 (GE Healthcare). Affinipure F(ab′)2 Fragment goat anti-human IgG-F(ab′)2 fragment specific (Jackson ImmunoResearch) was immobilised on a CM5 Sensor Chip via amine coupling chemistry to a level of ˜5000 response units (RUs). HBS-EP buffer (10 mM HEPES pH 7.4, 0.15 M NaCl, 3 mM EDTA, 0.05% Surfactant P20, GE Healthcare) was used as the running buffer with a flow rate of 10 μL/min. A 10 μL injection of rat/human chimeric at 0.5 μg/mL was used for capture by the immobilised human IgG-F(ab′)2. Human or cynomolgus TNF, was injected over the captured rat/human chimeric Fab at (5 nM or 3.125 nM respectively) at a flow rate of 30 μL/min. The surface was regenerated by 2×10 μL injection of 50 mM HCl, interspersed by a 5 μL injection of 5 mM NaOH at a flowrate of 10 μL/min. Background subtraction binding curves were analysed using the T200evaluation software (version 1.0) following standard procedures.

cynomolgus TNF-alpha = target: T2, cynomolgus TNF-alpha (cynomolgus, UniProt P79337 77-233); experiment: SPR (Biacore T200), Fab captured by anti-human F(ab')2, cynomolgus TNF at 3.125 nM
T2 construct: also called cyno TNF; cTNF
Method: as §1

| Binder | EC50 (ng/ml), HEK-293-CD40-BLUE reporter assay (human TNF-alpha [1]) | Kd (human TNF-alpha [2]) | koff (human TNF-alpha [2]) | kon (human TNF-alpha [2]) | Kd (human TNF-alpha [3]) | koff (human TNF-alpha [3]) | kon (human TNF-alpha [3]) | Kd (cynomolgus TNF-alpha) | koff (cynomolgus TNF-alpha) | kon (cynomolgus TNF-alpha) |
| --- | --- | --- | --- | --- | --- | --- | --- | --- | --- | --- |
| B1 | 0.31 ng/mL | 0.025 nM | 0.000119 s⁻¹ | 4.7e+06 M⁻¹ s⁻¹ |  |  |  |  |  |  |
| B2 |  |  |  |  | 0.0349 nM and 0.035 nM | 0.000143 s⁻¹ | 4.09e+06 M⁻¹ s⁻¹ | 0.0274 nM and 0.027 nM | 0.000102 s⁻¹ | 3.71e+06 M⁻¹ s⁻¹ |
